Measurements: publication PMC10639053
Each block holds one substance with its values, some of them ahead of it.

Key:
[1] = target: unmodified mono-nucleosome (human) (UniProt P0C0S8); assay: MST; 5' FAM-labelled nucleosomes (20 nM) with a dilution series of protein (0.122-4000 nM or 0.122-2000 nM), 50 mM HEPES pH 7.5, 150 mM NaCl, 0.1 mg/ml BSA, 10% glycerol, 0.02% NP40, 1 mM DTT, room temperature 30 min; one-site total binding fit
[2] = test system: BRCA1 deltaExon11;BARD1 full length (human;human); assay: MST; details: Kd in Table S2, not in material, EMSA: 50 mM Tris pH 7.5, 150 mM NaCl, 0.02% NP40, 0.1 mg/ml BSA, 10% glycerol, 1 mM DTT, 8% sucrose, on ice 1 h, MST: 50 mM HEPES pH 7.5, 150 mM NaCl
6xHis-MBP–BARD1^425–777 = 6xHis-MBP–BARD1^425–777 (UniProt Q99728); assay: MST; details: read at the highest titrant concentration (4000 nM 6xHis-MBP–BARD1ARD-BRCTs); 20 nM 5′ FAM-labelled nucleosomes; amplitude-normalised; mean of three …; parent: est. 10; read off a plot
[3] = target: human Flag-BRCA1^ΔExon11:6xHis-FL BARD1 complex, P38398-5;Q99728; assay: MST; details: read at the highest titrant concentration (2000 nM Flag-BRCA1ΔExon11:6xHis–BARD1); 20 nM 5′ FAM-labelled nucleosomes; amplitude-normalised; mean of three …; parent: est. 14; read off a plot

affinity relative to BARD1^ARD-BRCTs, fold [1]: 2 fold
Substance: human Flag-BRCA1^ΔExon11:6xHis-FL BARD1 complex (from UniProt P38398-5 1-721; Q99728 1-777)

Substance: unmodified mono-nucleosome
fold affinity relative to BARD1 ARD-BRCTs (fold affinity vs BARD1 ARD-BRCTs) [2]: 2

response (Fnorm [1/1000]) (6xHis-MBP–BARD1^425–777): 1.5
response (Fnorm [1/1000]) [3]: 5.7
Substance: unmodified mono-nucleosome (from UniProt P0C0S8;P33778;P68431;P62805) H2A:E61A; H2A:E91A; H2A:E92A; H2B:E105A
